Reference: publication PMC7946963, “Phosphorylation regulates the binding of autophagy receptors to FIP200 Claw domain for selective autophagy initiation” (Nature Communications, 2021)

What was measured:
Assay in all cases: fluorescence polarisation titration
Settings in all cases: reference: unphosphorylated CCPG1 FIR2 peptide; sites S104
LC3A = LC3A (UniProt Q9H492)
GABARAPL2 = GABARAPL2 (UniProt P60520)
LC3C = LC3C (UniProt Q9BXW4)
GABARAPL1 = GABARAPL1 (UniProt Q9H0R8)
LC3B = LC3B (UniProt Q9GZQ8)
[1] = target: FIP200 (RB1CC1) Claw domain, 1490-1594 (UniProt Q8TDY2)

Measured: binding against the reference

CCPG1 FIR2, 99-113 (from UniProt Q9ULG6) pS104 CCPG1 FIR2 peptide
stronger: all assays above
